“And” between values parts separate entries of the source, which are not always exact repeats. Equal entries are not always repeated. Blank lines part the entries; values can stand above or below the substance they belong to.
Key:
[1] = molecular target: K145E SAASoti (Stylocoeniella armata); assay: SEC; Superdex 200 10/300 GL, 20 mM Tris-HCl 150 mM NaCl pH 7.5, 0.5 ml/min, absorbance at 280 and 509 nm (the legend of Fig. 2 gives Tris-HCl 100 mM, CaCl2 10 mM, pH 7.6); wild type also run with DTT
[2] = molecular target: K145N SAASoti (Stylocoeniella armata); assay: two-focus fluorescence correlation spectroscopy (2fFCS); diffusion coefficient; 10 mM phosphate buffer, 150 mM NaCl pH 7.4, ~10^-9 M protein, 25 °C
[3] = molecular target: K145N SAASoti (Stylocoeniella armata); assay: SEC; Superdex 200 10/300 GL, 20 mM Tris-HCl 150 mM NaCl pH 7.5, 0.5 ml/min, absorbance at 280 and 509 nm (the legend of Fig. 2 gives Tris-HCl 100 mM, CaCl2 10 mM, pH 7.6); wild type also run with DTT
[4] = molecular target: K149E SAASoti (Stylocoeniella armata); assay: two-focus fluorescence correlation spectroscopy (2fFCS); diffusion coefficient; 10 mM phosphate buffer, 150 mM NaCl pH 7.4, ~10^-9 M protein, 25 °C
[5] = molecular target: K149E SAASoti (Stylocoeniella armata); assay: SEC; Superdex 200 10/300 GL, 20 mM Tris-HCl 150 mM NaCl pH 7.5, 0.5 ml/min, absorbance at 280 and 509 nm (the legend of Fig. 2 gives Tris-HCl 100 mM, CaCl2 10 mM, pH 7.6); wild type also run with DTT
[6] = molecular target: K149N SAASoti (Stylocoeniella armata); assay: two-focus fluorescence correlation spectroscopy (2fFCS); diffusion coefficient; 10 mM phosphate buffer, 150 mM NaCl pH 7.4, ~10^-9 M protein, 25 °C
[7] = molecular target: K149N SAASoti (Stylocoeniella armata); assay: SEC; Superdex 200 10/300 GL, 20 mM Tris-HCl 150 mM NaCl pH 7.5, 0.5 ml/min, absorbance at 280 and 509 nm (the legend of Fig. 2 gives Tris-HCl 100 mM, CaCl2 10 mM, pH 7.6); wild type also run with DTT
[8] = molecular target: V127T SAASoti (Stylocoeniella armata); assay: SEC; V127T SAASoti at high concentration (0.22 mM)
[9] = molecular target: wild type SAASoti (Stylocoeniella armata); assay: SEC; Superdex 200 10/300 GL, 20 mM Tris-HCl 150 mM NaCl pH 7.5, 0.5 ml/min, absorbance at 280 and 509 nm (the legend of Fig. 2 gives Tris-HCl 100 mM, CaCl2 10 mM, pH 7.6); wild type also run with DTT

stoichiometry N [2]: 4
stoichiometry N [3]: 4
Substance: K145N SAASoti (natural protein)

stoichiometry N [9]: 4 and 8
Substance: wild type SAASoti (natural protein)

Further lines, the substance ahead of its results:

Substance: K145E SAASoti (natural protein)
stoichiometry N [1]: 4

Substance: K149E SAASoti (natural protein)
stoichiometry N [4]: 4
stoichiometry N [5]: 4

Substance: K149N SAASoti (natural protein)
stoichiometry N [6]: 4
stoichiometry N [7]: 4

Substance: V127T SAASoti (natural protein)
stoichiometry N [8]: 2
